Assay results taken from the supplement of paper PMC9170038.

Tested on: MS2 coat protein
Experiment: apparent KD of MS2 coat protein; designed switch direction (-1 OFF switch, 1 ON switch): -1; higher = weaker reporter binding
Procedure, shortened: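 The apparent KD reported per design is the median over clusters of curve fits to normalised cluster fluorescence. The RNA switches were transcribed on Illumina chips by stalled E. coli RNA polymerase. SNAP-549-labelled MS2 coat protein was titrated from 0.7 or 1.5 nM, doubling up to 3 µM, in Tris-HCl pH 7.5 buffer containing KCl, MgCl2, BSA, DTT, tRNA and Tween-20, with no input, 200 uM small-molecule ligand, or an oligonucleotide input.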

[1] = Eterna round: R95, input ligand: FMN 200 uM
[2] = Eterna round: R95, input ligand: microRNA oligo, concentration not stated
[3] = Eterna round: R95, input ligand: none
[4] = input ligand: microRNA oligo, concentration not stated

Sequence	apparent KD of MS2 coat protein [2]	apparent KD of MS2 coat protein (input ligand: FMN 200 uM)	apparent KD of MS2 coat protein (input ligand: none)	other results
AAAUAAUAGAUAAAAUAAUACAUGAGGAUCACCCAUGUGGGAUGCUGAGGGUGAUACAAGCUUUUUGCUCGUCUUAU (puzzle: Sensor v3, turn-off variant 1)	0.0197 µM	–	–	apparent KD of MS2 coat protein [1]: 0.212 µM; apparent KD of MS2 coat protein [3]: 0.245 µM
AGAUCCUGAGUCAGGAUAUAGAGACGGUAGUCGGGCUAGAAGGGACAUGAGGAUCACCCAUGUGGGUUCUUGCC [Rilalera] (puzzle: Brourd's mod of Exclusion 4)	0.0101 µM	–	–	–
GUGUAGGGAGGAUAUACAUGAGGAUCACCCAUGUGAAUAAGAUAGAAUAAGAUAAAGUGUAGAAGGUCUAGUGU [Excluse me!!! 12 - Jieux - Exclusion 3] (puzzle: Exclusion 3)	0.0527 µM	–	–	–
GUGAGUAGUCAGGAUAUGCUGUACAAAAGUACAGCAGAAGGGAUUACAUGAGGAUCACCCAUGUUUACUUCGUG [Omei Ex6 B3] (Eterna round: R97, puzzle: Exclusion 6)	–	0.105 µM	0.0297 µM	–
GUAAACCGGUGAGGAUAUUUAUAAUAGAGCUUUAUGAUAUACAUGAGGAUCACCCAUGUUACUUUAAAGAAGGCAUCGGAAAUG [Mat - Exclusion NG 2 - Mod of JL - D95] (Eterna round: R96, puzzle: Exclusion NG 2)	–	–	–	apparent KD of MS2 coat protein [4]: 0.0155 µM
UACCUAUAGUAAGGAUAUCAUUGCGAUUAGCUAUGAGAAGGUACACAUGAGGAUCACCCAUGUCCUCCAAUUAACCGAAAGGUA [7th something] (Eterna round: R96, puzzle: Exclusion NG 1)	–	0.318 µM	0.178 µM	apparent KD of MS2 coat protein [4]: 0.17 µM
AUGAGGUUAGGAUAUACAUGAGGAUCACCCAUGUUGAAAGGUUAGAUAGGCGAAGCUGGUAGAAGGAACGGAGC [JR_Exclu3_Sub055] (puzzle: Exclusion 3)	0.0298 µM	–	–	apparent KD of MS2 coat protein [1]: 0.0279 µM; apparent KD of MS2 coat protein [3]: 0.0328 µM
CCGCCAUGAGGAUAUUAGUAGUAGUCAGAAAAGACUAUUACUGAGAAGGCACAUGAGGAUCACCCAUGUAGCGG [Mat - Exclusion 4 - Eli Mod - D50] (Eterna round: R97, puzzle: Exclusion 4)	–	0.0188 µM	0.041 µM	–
AACCAGCUAGGAUAUGCUUGCGCGUGUUCUGGUUAUAAUCGACUUGAGGAUCACCCAAGUAGAAGGAGCUGGCG [EX2 #54] (Eterna round: R97, puzzle: Exclusion 2)	–	1.36 µM	0.445 µM	–
UAUUUUGCAAGCAGAUCCCACAUGAGGAUCACCCAUGUGCUCGUCUUAUAAGGUUCUGUGACGAUAGUCACGGUACC [mod -Eli mod] (Eterna round: R97, puzzle: Sensor, turn-off variant 1)	–	0.0459 µM	0.0461 µM	–
GUGGGACAUGAGGAUCACCCAUGUCAGGAUAUUUGGGCGAGAUUCGAUCUCGUUAGCCGGAGAAGGGACGUAUG [Eternabot (L2) Solution 47] (Eterna round: R97, puzzle: Exclusion 1)	–	0.0347 µM	0.025 µM	–
GAGAGGUCAGGAUAUACGGAGAGAGAGAGUAGGUGAGGGUAACAUGAGGAUCACCCAUGUAGAAGGGACUAAGG [JR_Exclu2_Sub075] (puzzle: Exclusion 2)	0.0484 µM	–	–	apparent KD of MS2 coat protein [1]: 0.0517 µM; apparent KD of MS2 coat protein [3]: 0.0463 µM
GUAAUGUCAGGAUAUACUAAUGAUGAAUGAUCAGACAUUAUGUAGAAGGGACAUGAGGAUCACCCAUGUAAUAU [EX4 #4] (Eterna round: R97, puzzle: Exclusion 4)	–	0.0493 µM	0.0284 µM	–
UAUGGUUAAGUCAGGAUAUGCUCGUAGAGGUCUAUGCAGAAGGGACAUGAGGAUCACCCAUGUAUGGUCGUGUU [Ex4 #67] (Eterna round: R97, puzzle: Brourd's mod of Exclusion 4)	–	0.161 µM	0.067 µM	–
CAUGAUCUUCGGAUCAUGUACAUGAGGAUCACCCAUGUGACGAGUUACAUGUUUUACAAGCUUUUUGCUCGUCUUAU [Sensor v3 - Turn-off variant 1 - 14] (puzzle: Sensor v3, turn-off variant 1)	0.0994 µM	–	–	apparent KD of MS2 coat protein [1]: 0.0403 µM; apparent KD of MS2 coat protein [3]: 0.0474 µM
UUGUUGUAUGUAGGAUAUGCGUAUUGUUAUUAUGCAGAAGGACAUGAGGAUCACCCAUGUAUAUUAUUAUUAUAUAUUAUAUAU [Title] (Eterna round: R96, puzzle: Exclusion NG 1)	–	–	–	apparent KD of MS2 coat protein [4]: 0.0201 µM
UUAAUUAAUAAUUAAGAUCAUUACAUGAGGAUCACCCAUGUCGAGGAUAUCAGCUCGUGUAGAGCUGAGAAGGCGACAAAUUAU [ExNG3/13-B3] (Eterna round: R96, puzzle: Exclusion NG 3)	–	0.586 µM	0.633 µM	apparent KD of MS2 coat protein [4]: 0.268 µM
UGAAUGUGAGGAUAUGGUGAGUAGUGCCUAAGCGCUGCUCACCAGAAGGCACAUGAGGAUCACCCAUGUACUUG [Mat - Exclusion 4 - Mod of JL - D19] (puzzle: Exclusion 4)	0.0479 µM	–	–	–
GGUUCGAGUGUGAGGAUAUGCUGGUCCUUGGAUCAGCAGAAGGCACAUGAGGAUCACCCAUGUGGUAACGGACC [Mat - Exclusion 4 - Eli Mod - D35] (Eterna round: R97, puzzle: Brourd's mod of Exclusion 4)	–	0.263 µM	0.331 µM	–
AACCAGCGAGGAUAUGCUUGAGCUUGUUCUGGUUAUAAUCGACUUGAGGAUCACCCAAGUAGAAGGUGCUGACG [EX2 #58] (Eterna round: R97, puzzle: Exclusion 2)	–	0.0256 µM	0.0269 µM	–
UCAAGUUUUUUGUUUUUUAACAUGAGGAUCACCCAUGUAUUUUUAUAGUAUGUGUGAAUAAGAUCUCGUGGUCUUAU [JR_SV3TOV1_Sub099] (puzzle: Sensor v3, turn-off variant 1)	0.0781 µM	–	–	apparent KD of MS2 coat protein [1]: 0.0318 µM; apparent KD of MS2 coat protein [3]: 0.0365 µM
CUAGUCCGAGGAUAUAUUAAGUGAAACAUGAGGAUCACCCAUGUUAUUUAAUGGAAAUAAAUAGAAGGCGGACUAG [Mat - Exclusion 5 - JL mod - D56] (puzzle: Exclusion 5)	0.0346 µM	–	–	apparent KD of MS2 coat protein [1]: 0.0272 µM; apparent KD of MS2 coat protein [3]: 0.0516 µM
UUAUUAUAUGUAGGAUAUGCAUAUUGUUGUUAUGCAGAAGGACAUGAGGAUCACCCAUGUGUAUUAUUGUUAUAUAUUAUAUAU [Title] (Eterna round: R96, puzzle: Exclusion NG 1)	–	–	–	apparent KD of MS2 coat protein [4]: 0.0165 µM
GAUCAACAUGAGGAUCACCCAUGUGAGGAUAUGUAUCAUAGAUCUUCGGAUCUAUGAUACAGAAGGCAUGUGAA [Ex1-3: 101] (puzzle: Exclusion 1)	0.0678 µM	–	–	–
AUGUUGCGAGGAUAUAUAAGGGUAUAAUAAUAAGAUAUGGAACAUGAGGAUCACCCAUGUAGAAGGUGCAUAAC [JR_Ex2_Sub040] (Eterna round: R97, puzzle: Exclusion 2)	–	0.84 µM	0.0211 µM	–
GCGCACCUACCAAAAGGUAGGCCGACAUGAGGAUCACCCAUGUAGGAUAUCGAUUGCUUUGCAGUCGAGAAGGACAUGAUGCGC [JL ENG3 3.80 Mod 9] (Eterna round: R96, puzzle: Exclusion NG 3)	–	0.0358 µM	0.019 µM	apparent KD of MS2 coat protein [4]: 0.0116 µM
